This passage reports Kd results from article PMC3467072.

In the series the target is T1, Rv3066 (TetR-family regulator) (Mycobacterium tuberculosis H37Rv, UniProt I6X658 1-202).
T1 sequence: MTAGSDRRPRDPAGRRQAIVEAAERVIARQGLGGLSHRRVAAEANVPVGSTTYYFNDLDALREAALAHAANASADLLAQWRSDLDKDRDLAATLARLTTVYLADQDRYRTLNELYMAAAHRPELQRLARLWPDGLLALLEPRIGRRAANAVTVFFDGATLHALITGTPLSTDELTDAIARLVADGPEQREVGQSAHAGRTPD
Nature of the series: fluorescence polarization. Background: Polarisation of emitted light reports the rotation of a fluorescent probe.

B1: 30-bp IR1 dsDNA, fluorescein (dsDNA)
DNA 1: CGAGCCTCCTTTGTGTACATTTGTACATGT
DNA 2: ACATGTACAAATGTACACAAAGGAGGCTCG
As for B1, the Kd (in general, the concentration at which binding is half-saturated) is 4.4 ± 0.3 nM.
